Measured values taken from US20090182306A1, “Microneedle Devices and Methods of Drug Delivery or Fluid Withdrawal” (Georgia Tech Research Corporation, priority 2006, published 2009).

Legend:
[1] = In vivo delivery of human growth hormone in hairless rats; conditions: subcutaneous injection of 196 μg
Protocol: Microneedle devices were prepared as described in Example 3. The microneedles and base substrate were both made of CMC and, in some cases, 50% trehalose was included in the formulation too. Human growth hormone (Pfizer) was added to the microneedles at a content of 191-249 μg per 100-needle array. The ratio of growth hormone to matrix material (i.e., CMC or CMC plus trehalose) was 1 to 9. Microneedles were inserted into the skin of hairless rats (Charles River Laboratories). The microneedles inserted easily by hand and were left in place for 24 hours. Minimal skin irritation was seen after microneedle use. A positive control group was included, in which rats received subcutaneous injection of 196 μg of human growth hormone. Blood was drawn periodically and assayed using an ELISA kit specific for human growth hormone without cross-reactivity with rat growth hormone (Diagnostic Systems Laboratories, Webster, Tex.).

[2] = Lysozyme secondary structure by circular dichroism after encapsulation and storage; type: physicochemical
Protocol: The secondary structure of the model drug lysozyme was examined by spectropolarimetry (JASCO, J-810, Tokyo, Japan) after encapsulation and release from dissolving microneedles produced in accordance with Example 3. CMC pyramidal microneedle devices weighing 5 mg that encapsulated lysozyme at a mass fraction of 5 wt % were completely dissolved in […] PBS at room temperature for 10 min and filtered by centrifugal filtration (Centricon YM-50, Millipore, Bedford, Mass., USA) at 1000×g and room temperature for 10 min to isolate lysozyme (14.3 kDa) from the dissolved CMC matrix material (90 kDa average molecular mass). After determining lysozyme concentration, PBS was added to dilute the lysozyme to 20 μg/ml. CD spectra were taken for (1) untreated lysozyme, (2) lysozyme encapsulated in microneedles that were dissolved 1 h after fabrication, (3) lysozyme encapsulated in microneedles that were dissolved after 60 days of storage at ambient conditions (23±2° C. and 38±5% relative humidity), and (4) lysozyme thermally treated at 80° C. for 30 min to cause irreversible denaturation.

[3] = Lysozyme enzymatic activity (EnzCheck lysozyme assay kit) after encapsulation and storage; type: biochemical
Protocol: Enzymatic activity of lysozyme encapsulated within CMC microneedle devices was tested with EnzCheck lysozyme assay kit (Molecular Probes). Microneedle devices weighing 5 mg that contained lysozyme encapsulated at a concentration of 5 wt % were completely dissolved in PBS at room temperature for 10 min. PBS was added to dilute each sample to 0.05 μg/ml lysozyme and 0.95 μg/ml CMC. Lysozyme activity was assayed using 1 ml solution samples for: (1) untreated lysozyme, (2) untreated lysozyme (0.05 μg) and CMC hydrogel (0.95 μg) mixed, and dissolved together, (3) lysozyme encapsulated in microneedles that were dissolved 1 h after fabrication, and (4) lysozyme encapsulated in microneedles that were dissolved after 60 days of storage at ambient conditions.

Substance	time of serum concentration peak [1]	protein structure (CD) ([2]; after storage of microneedle patches for 2 months at room temperature)	change in protein secondary structure (CD) ([2]; encapsulated in microneedle patch, then released by dissolution, versus untreated lysozyme)	secondary structure (CD), positive control ([2]; thermally treated at 80° C. for 30 min)	loss of enzymatic activity compared to untreated enzyme ([3]; encapsulated in microneedles, dissolved in PBS)	retained enzymatic activity ([3]; released from microneedles after two months of storage) [%]	change in lysozyme activity ([3]; untreated lysozyme mixed with dissolved CMC microneedle containing no lysozyme)
growth hormone: Human growth hormone (Pfizer)	within about one hour						
lysozyme: model drug (14.3 kDa) encapsulated at 5 wt % in CMC microneedle devices		unchanged	no detectable change	extensive degradation of secondary structure	no loss of enzymatic activity	96	no change in lysozyme activity
